Measured values published in patent US20240033318A1 (OHIO STATE INNOVATION FOUNDATION, published 2024).
Non-standard residues stand in square brackets, D forms with d. Primed or numbered codes have the meaning given here. No end group written: not given here. *: point of attachment. FITC′ = fluorescein isothiocyanate (fluorescein label attached to the Lys side chain); FITC″ = fluorescein isothiocyanate, fluorescein thiocarbamoyl on Lys NZ; FITC = O=C1OC2(c3ccc(O)cc3Oc3cc(O)ccc32)c2ccc(NC(=S)*)cc21; Benzoyl(2,3-Cl2) = O=C(c1cccc(Cl)c1Cl)*; Phe(4-F) = N[C@@H](Cc1ccc(F)cc1)C(=O)O; Tle = CC(C)(C)[C@H](N)C(=O)O; acyl = not defined here; Bz = O=C(c1ccccc1)*; βAla = NCCC(=O)O

How the values were obtained:
[1] = target: T1, calcineurin expressed as the glutathione S-transferase fusion protein (GST-CN) (UniProt Q08209 2-347); assay: fluorescence anisotropy (FA), direct binding of FITC-labeled peptide to GST-CN
T1 construct: also called CN-GST; recombinant GST-CN; not shown: glutathione S-transferase (GST) fusion partner
T1 sequence (Q08209 2-347): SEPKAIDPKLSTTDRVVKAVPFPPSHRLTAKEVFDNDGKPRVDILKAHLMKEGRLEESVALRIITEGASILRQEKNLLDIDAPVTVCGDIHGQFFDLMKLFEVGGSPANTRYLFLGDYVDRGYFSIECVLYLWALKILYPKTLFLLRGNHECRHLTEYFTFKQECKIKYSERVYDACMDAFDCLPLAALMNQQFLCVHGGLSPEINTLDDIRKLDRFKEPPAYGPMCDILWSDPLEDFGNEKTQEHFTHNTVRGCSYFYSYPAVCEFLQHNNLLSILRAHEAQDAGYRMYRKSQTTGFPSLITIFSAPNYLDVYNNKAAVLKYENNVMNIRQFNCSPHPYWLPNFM
Experimental: (§1) Fluorescence Polarization. Fluorescence polarization (FP) experiments were carried out to measure binding affinity in both direct and competitive binding experiments using GST-CN and peptides prepared as mentioned previously. […] Solutions were incubated for 1 h at RT with gentle mixing and then pipetted into black 384-well microplates. Fluorescence polarization was measured on a TECAN Infinite M1000 plate reader and titration curves were fitted using both KaelidaGraph v 3.6 and GraphPad PRISM to the equation: […]

[2] = target: T1, calcineurin expressed as the …; assay: FP competition (Condition E): 50 nM probe, 50 nM CN-GST, unlabeled compound titrated
Experimental: Binding Affinity. […] Serial dilutions of each unlabeled compound were prepared in pH 7.4 PBS containing 0.01% Triton-X100, to which was added the incubation solution and mixed for 1 hr at RT after which 20 μL sample was pipetted into 384-well black-on-black microplates and fluorescence polarization was measured using a TECAN Infinite M1000 plate reader. IC₅₀ values were calculated using GraphPad PRISM v.

[3] = target: T1, calcineurin expressed as the …; assay: FP competition: 15 nM FITC-labeled compound 35 as probe, 15 nM GST-CN, unlabeled inhibitor titrated
Experimental: (§2) Serial dilutions of unlabeled inhibitor were prepared in pH 7.4 PBS containing 0.01% Triton-X100, to which was added the incubation solution and mixed for 1 h at RT. 20 μL aliquots from each concentration were added into 384-well black-on-black microplates and fluorescence polarization was measured using a TECAN Infinite M1000 plate reader. IC50 values were calculated using GraphPad PRISM v. 7.

[4] = target: T1, calcineurin expressed as the …; assay: direct binding by FA
Experimental: as §1

[5] = target: T1, calcineurin expressed as the …; assay: FA-based competition (FP): 50 nM FITC-labeled peptide 14 as probe, 100 nM GST-CN, competitor titrated
Experimental: (§3) Serial dilutions of competitor peptides were prepared in PBS with 0.01% Trition-X100 and then added to the incubation solution and equilibrated at RT with gentle mixing for 1 h. Samples were pipetted into 384-well black microplates and FP signal was measured using a TECAN Infinite M1000 plate reader and analyzed using GraphPad PRISM v.6.

[6] = target: T1, calcineurin expressed as the …; assay: FP competition with FITC-labeled compound 35 for GST-CN
Experimental: as §2

[7] = target: T1, calcineurin expressed as the …; assay: fluorescence anisotropy (FA), direct binding of FITC-labeled peptide
Experimental: as §1
(§4) Additional characterization of CNI95 (including in vivo evaluation) is currently ongoing.

mouse plasma proteins = assay: rapid equilibrium dialysis (RED) of CNI103 in mouse plasma, 37° C., 5 hours, LC/MS/MS
[8] = target: T1, calcineurin expressed as the …; assay: FA-based competition assay, inhibition of the binding of peptide 14 to CN
Experimental: as §3, §4

[9] = target: T1, calcineurin expressed as the …; assay: fluorescence anisotropy (FA), direct binding

B1: peptide 3: cyclopentylcarbonyl-ZIZITGPHEEYK(FITC)-NH2 (peptide)
peptide: cyclopentylcarbonyl-[Tle]I[Tle]ITGPHEEYK(FITC″)-NH2
Kd [1]: 357 nM

B2: peptide 9: Dcb-ZIZITGPHEEYK(FITC)-NH2 (peptide)
peptide: {Benzoyl(2,3-Cl2)}-[Tle]I[Tle]ITGPHEEYK(FITC″)-NH2
Kd [1]: 41 nM

B3: peptide 10: acyl-ZIZITGPHEEYK(FITC)-NH2 (peptide)
peptide: [Tle]I[Tle]ITGPHEEYK(FITC)-NH2
modifications: not fully specified (N-terminus); printed as acyl-ZIZITGPHEEYK(FITC)-NH2; also: N-terminal acyl group unspecified (halogenated/alkylated benzoyl, drawing only)
Kd [1]: 189 nM

B4: peptide 7: acyl-ZIZITGPHEEYK(FITC)-NH2 (peptide)
peptide: acyl-[Tle]I[Tle]ITGPHEEYK(FITC″)-NH2
modifications: reading uncertain; also: N-terminal acyl: halogenated and/or alkylated benzoyl, not named, printed as peptide 7: acyl-ZIZITGPHEEYK(FITC)-NH2
Kd [1]: 32 nM

B5: CNI101: (DCNA)-Tle-Ile-Tle-Ile-Thr-Gln-His-(D-Leu)-Ser-miniPEG-Lys{[cyclo-(Gln-(D-Arg)-Arg-(D-Arg)-Arg-(2-Nal)-(D-Phe)]}-NH2 (peptide)
peptide: XIXITQHLSKQRRRRXF
modifications: not fully specified; N-terminal DCNA (2,3-dichlorisonicotinamide; Table 8 prints DCN, 2,3-dichloro-4-pyridinyl); Tle at 1 and 3; D-Leu; miniPEG; Lys side chain carrying cyclo-(Gln-(D-Arg)-Arg-(D-Arg)-Arg-(2-Nal)-(D-Phe)); C-terminal amide
notes: also called compound 41; 41
IC50 [2]: 184 nM
IC50 [3]: 184 nM

B6: peptide 14: Dcb-ZIZIT-Gln-His-leu-Ser-βAla-Lys (FITC) (peptide)
peptide: {Benzoyl(2,3-Cl2)}-[Tle]I[Tle]ITQH[dL]S[βAla]K(FITC″)
notes: also called FITC-labeled peptide 14
Kd [1]: 9.1 nM

B7: peptide 15: Dcb-ZIZIT-Gln-His-leu-His-βAla-Lys (FITC) (peptide)
peptide: {Benzoyl(2,3-Cl2)}-[Tle]I[Tle]ITQH[dL]H[βAla]K(FITC″)
Kd [1]: 4.7 nM

B8: peptide 4: cyclohexylcarbonyl-ZIZITGPHEEYK(FITC)-NH2 (peptide)
peptide: cyclohexylcarbonyl-[Tle]I[Tle]ITGPHEEYK(FITC″)-NH2
Kd [1]: 207 nM

B9: CNI93 (peptide)
peptide: XIXITQHLSXKFXRRRRQ
modifications: not fully specified; sequence of peptide 14 (Dcb-ZIZIT-Gln-His-leu-Ser) with cyclic CPP9, cyclo(fΦRrRrQ), attached to the C-terminus through an amide bond and a βAla-Lys linker; Z = Tle; D-Leu
notes: A biotinylated form was used in the macrophage experiment
fold lower CN-binding affinity (relative to peptide 14) [4]: 8 fold
IC50 [5]: 127 nM

B10: compound 51: (DFNA)-Tle-Chg-Psa-Ile-Thr-Gln-His-(D-Leu)-Ser-miniPEG-Lys{[cyclo-(Gln-(D-Arg)-Arg-(D-Arg)-Arg-(2-Nal)-(D-Phe)]}-NH2 (peptide)
peptide: XXXITQHLSKQRRRRXF
modifications: not fully specified; N-terminal DFNA (2,3-difluoroisonicotinamide); Tle; Chg = L-cyclohexylglycine; Psa = L-penicillamine sulfonic acid; D-Leu; miniPEG; Lys side chain carrying cyclo-(Gln-(D-Arg)-Arg-(D-Arg)-Arg-(2-Nal)-(D-Phe)); C-terminal amide
IC50 [3]: 96.5 nM

B11: peptide 1: Ac-GPHPZIZITGPHEEYK(FITC)-NH2 (peptide)
peptide: Ac-GPHP[Tle]I[Tle]ITGPHEEYK(FITC″)-NH2
Kd [1]: 92 nM

B12: peptide 11: acyl-ZIZITGPHEEYK(FITC)-NH2 (peptide)
peptide: [Tle]I[Tle]ITGPHEEYK(FITC)-NH2
modifications: not fully specified (N-terminus); printed as acyl-ZIZITGPHEEYK(FITC)-NH2; also: N-terminal acyl group unspecified (halogenated/alkylated benzoyl, drawing only)
Kd [1]: 77 nM

B13: CNI88 (peptide)
peptide: XIXITYEXGAKFXRRRRQ
modifications: not fully specified; sequence of peptide 13 (Dcb-ZIZIT-Tyr-glu-Fpa-Gly) with cyclic CPP9, cyclo(fΦRrRrQ), attached to the C-terminus through an amide bond and a βAla-Lys linker; Z = Tle; D-Glu; Fpa = …
IC50 [5]: 426 nM

B14: compound 44 (CNI104): (DCNA)-Tle-Chg-Bhv-Ile-Thr-Gln-His-(D-Leu)-Ser-βAla-Lys{[cyclo-(Gln-(D-Arg)-Arg-(D-Arg)-Arg-(2-Nal)-(D-Phe)]}-NH2 (peptide)
peptide: XXXITQHLSXKQRRRRXF
modifications: not fully specified; N-terminal DCNA (2,3-dichlorisonicotinamide); Tle; Chg = L-cyclohexylglycine; Bhv = L-β-hydroxyvaline; D-Leu; βAla; Lys side chain carrying cyclo-(Gln-(D-Arg)-Arg-(D-Arg)-Arg-(2-Nal)-(D-Phe)); C-terminal amide
fold higher potency (relative to CNI103) [6]: ~5 fold
IC50 [3]: 44.9 nM

B15: CNI95 labeled at the C-terminus with FITC (peptide)
peptide: XIXITQHLSKFXRRRRQ
modifications: not fully specified; sequence of peptide 14 (Dcb-ZIZIT-Gln-His-leu-Ser) conjugated to CPP9, cyclo(fΦRrRrQ), through a miniPEG-Lys linker; FITC at the C-terminus; Z = Tle; D-Leu
notes: also called FITC-labeled CNI95
Kd [7]: 17 nM

B16: CNI103: (DCNA)-Tle-Ile-Bhv-Ile-Thr-Gln-His-(D-Leu)-Ser-miniPEG-Lys{[cyclo-(Gln-(D-Arg)-Arg-(D-Arg)-Arg-(2-Nal)-(D-Phe)]}-NH2 (peptide)
peptide: XIXITQHLSKQRRRRXF
modifications: not fully specified; N-terminal DCNA (2,3-dichlorisonicotinamide; Table 8 prints DCN); Tle at 1; Bhv = L-β-hydroxyvaline at 3 (Table 8 prints Hva); D-Leu; miniPEG; Lys side chain carrying cyclo-(Gln-(D-Arg)-Arg-(D-Arg)-Arg-(2-Nal)-(D-Phe)); C-terminal amide
notes: also called CN103; compound 43
% Binding (mouse plasma proteins): 97.6%
IC50 [2]: 223 nM
IC50 [3]: 223 nM

B17: peptide 8: acyl-ZIZITGPHEEYK(FITC)-NH2 (peptide)
peptide: acyl-[Tle]I[Tle]ITGPHEEYK(FITC″)-NH2
modifications: reading uncertain; also: N-terminal acyl: halogenated and/or alkylated benzoyl, not named, printed as peptide 8: acyl-ZIZITGPHEEYK(FITC)-NH2
Kd [1]: 74 nM

B18: CNI95 (unlabeled) (peptide)
peptide: XIXITQHLSKFXRRRRQ
modifications: not fully specified; sequence of peptide 14 (Dcb-ZIZIT-Gln-His-leu-Ser) conjugated to CPP9, cyclo(fΦRrRrQ), through a miniPEG-Lys linker; Z = Tle; D-Leu
fold higher potency (relative to CNI93) [8]: ~5 fold

B19: compound 46: (DCNA)-Tle-Ile-Psa-Ile-Thr-Gln-His-(D-Leu)-Ser-miniPEG-Lys{[cyclo-(Gln-(D-Arg)-Arg-(D-Arg)-Arg-(2-Nal)-(D-Phe)]}-NH2 (peptide)
peptide: XIXITQHLSKQRRRRXF
modifications: not fully specified; N-terminal DCNA; Tle; Psa = L-penicillamine sulfonic acid; D-Leu; miniPEG; Lys side chain carrying cyclo-(Gln-(D-Arg)-Arg-(D-Arg)-Arg-(2-Nal)-(D-Phe)); C-terminal amide
IC50 [3]: 107 nM

B20: peptide 2: benzoyl-ZIZITGPHEEYK(FITC)-NH2 (peptide)
peptide: Bz-[Tle]I[Tle]ITGPHEEYK(FITC″)-NH2
Kd [1]: 224 nM

B21: control: (DCB)-Tle-Ile-Tle-Ile-Thr-Gln-His-(D-Leu)-Ser-(β-Ala)-Lys{[cyclo-(Gln-(D-Arg)-Arg-(D-Arg)-Arg-(2-Nal)-(D-Phe)]}-NH2 (peptide)
peptide: XIXITQHLSXKQRRRRXF
modifications: not fully specified; N-terminal DCB (2,3-dichlorobenzoyl); Tle at 1 and 3; D-Leu; β-Ala; Lys side chain carrying cyclo-(Gln-(D-Arg)-Arg-(D-Arg)-Arg-(2-Nal)-(D-Phe)); C-terminal amide
notes: It is therefore kept as a separate molecule
IC50 [2]: 857 nM

B22: compound 48: (DFNA)-Tle-Ile-Bhv-Ile-Thr-Gln-His-(D-Leu)-Ser-miniPEG-Lys{[cyclo-(Gln-(D-Arg)-Arg-(D-Arg)-Arg-(2-Nal)-(D-Phe)]}-NH2 (peptide)
peptide: XIXITQHLSKQRRRRXF
modifications: not fully specified; N-terminal DFNA (2,3-difluoroisonicotinamide); Tle; Bhv = L-β-hydroxyvaline; D-Leu; miniPEG; Lys side chain carrying cyclo-(Gln-(D-Arg)-Arg-(D-Arg)-Arg-(2-Nal)-(D-Phe)); C-terminal amide
IC50 [3]: 73.5 nM

B23: compound 45: (DCNA)-Tle-Chg-Bhv-Ile-Thr-Gln-His-(D-Leu)-Ser-miniPEG-Lys{[cyclo-(Gln-(D-Arg)-Arg-(D-Arg)-Arg-(2-Nal)-(D-Phe)]}-NH2 (peptide)
peptide: XXXITQHLSKQRRRRXF
modifications: not fully specified; N-terminal DCNA; Tle; Chg = L-cyclohexylglycine; Bhv = L-β-hydroxyvaline; D-Leu; miniPEG; Lys side chain carrying cyclo-(Gln-(D-Arg)-Arg-(D-Arg)-Arg-(2-Nal)-(D-Phe)); C-terminal amide
IC50 [3]: 45.6 nM

B24: peptide 12: Dcb-ZIZIT-miniPEG-Lys (FITC) (peptide)
peptide: {Benzoyl(2,3-Cl2)}-[Tle]I[Tle]IT[miniPEG]K(FITC′)
fold decrease in binding affinity (relative to peptide 9) [9]: 17 fold
Kd [1]: 700 nM

B25: peptide 13: Dcb-ZIZIT-Tyr-glu-Fpa-Gly-βAla-Lys (FITC) (peptide)
peptide: {Benzoyl(2,3-Cl2)}-[Tle]I[Tle]ITY[dE][Phe(4-F)]G[βAla]K(FITC)
Kd [1]: 12 nM
